The labels stand for the following.
B1: sp¦O75663¦TIPRL_HUMAN (protein, UniProt O75663 1-272, looked up)
TIP41-like protein: MMIHGFQSSHRDFCFGPWKLTASKTHIMKSADVEKLADELHMPSLPEMMFGDNVLRIQHGSGFGIEFNATDALRCVNNYQGMLKVACAEEWQESRTEGEHSKEVIKPYDWTYTTDYKGTLLGESLKLKVVPTTDHIDTEKLKAREQIKFFEEVLLFEDELHDHGVSSLSVKIRVMPSSFFLLLRFFLRIDGVLIRMNDTRLYHEADKTYMLREYTSRESKISSLMHVPPSLFTEPNEISQYLPIKEAVCEKLIFPERIDPNPADSQKSTQVE
B2: sp¦Q9Y5J7¦TIM9_HUMAN (protein, UniProt Q9Y5J7 2-89, looked up)
Mitochondrial import inner …: AAQIPESDQIKQFKEFLGTYNKLTETCFLDCVKDFTTREVKPEETTCSEHCLQKYLKMTQRISMRFQEYHIQQNEALAAKAGLLGQPR
B3: sp¦Q15007¦FL2D_HUMAN (protein, UniProt Q15007 1-396, looked up)
Pre-mRNA-splicing regulator …: MTNEEPLPKKVRLSETDFKVMARDELILRWKQYEAYVQALEGKYTDLNSNDVTGLRESEEKLKQQQQESARRENILVMRLATKEQEMQECTTQIQYLKQVQQPSVAQLRSTMVDPAINLFFLKMKGELEQTKDKLEQAQNELSAWKFTPDSQTGKKLMAKCRMLIQENQELGRQLSQGRIAQLEAELALQKKYSEELKSSQDELNDFIIQLDEEVEGMQSTILVLQQQLKETRQQLAQYQQQQSQASAPSTSRTTASEPVEQSEATSKDCSRLTNGPSNGSSSRQRTSGSGFHREGNTTEDDFPSSPGNGNKSSNSSEERTGRGGSGYVNQLSAGYESVDSPTGSENSLTHQSNDTDSSHDPQEEKAVSGKGNRTVGSRHVQNGLDSSVNVQGSVL
B4: sp¦P10515¦ODP2_HUMAN (protein, UniProt P10515 87-647, looked up)
Dihydrolipoyllysine-residue …: SLPPHQKVPLPSLSPTMQAGTIARWEKKEGDKINEGDLIAEVETDKATVGFESLEECYMAKILVAEGTRDVPIGAIICITVGKPEDIEAFKNYTLDSSAAPTPQAAPAPTPAATASPPTPSAQAPGSSYPPHMQVLLPALSPTMTMGTVQRWEKKVGEKLSEGDLLAEIETDKATIGFEVQEEGYLAKILVPEGTRDVPLGTPLCIIVEKEADISAFADYRPTEVTDLKPQVPPPTPPPVAAVPPTPQPLAPTPSAPCPATPAGPKGRVFVSPLAKKLAVEKGIDLTQVKGTGPDGRITKKDIDSFVPSKVAPAPAAVVPPTGPGMAPVPTGVFTDIPISNIRRVIAQRLMQSKQTIPHYYLSIDVNMGEVLLVRKELNKILEGRSKISVNDFIIKASALACLKVPEANSSWMDTVIRQNHVVDVSVAVSTPAGLITPIVFNAHIKGVETIANDVVSLATKAREGKLQPHEFQGGTFTISNLGMFGIKNFSAIINPPQACILAIGASEDKLVPADNEKGFDVASMMSVTLSCDHRVVDGAVGAQWLAEFRKYLEKPITMLL
B5: sp¦Q53GQ0¦DHB12_HUMAN (protein, UniProt Q53GQ0 1-312, looked up)
Very-long-chain 3-oxoacyl-CoA …: MESALPAAGFLYWVGAGTVAYLALRISYSLFTALRVWGVGNEAGVGPGLGEWAVVTGSTDGIGKSYAEELAKHGMKVVLISRSKDKLDQVSSEIKEKFKVETRTIAVDFASEDIYDKIKTGLAGLEIGILVNNVGMSYEYPEYFLDVPDLDNVIKKMININILSVCKMTQLVLPGMVERSKGAILNISSGSGMLPVPLLTIYSATKTFVDFFSQCLHEEYRSKGVFVQSVLPYFVATKLAKIRKPTLDKPSPETFVKSAIKTVGLQSRTNGYLIHALMGSIISNLPSWIYLKIVMNMNKSTRAHYLKKTKKN
B6: sp¦O95104¦SCAF4_HUMAN (protein, UniProt O95104 1-1147, looked up)
SR-related and CTD-associated …: MDAVNAFNQELFSLMDMKPPISRAKMILITKAAIKAIKLYKHVVQIVEKFIKKCKPEYKVPGLYVIDSIVRQSRHQFGTDKDVFGPRFSKNITATFQYLYLCPSEDKSKIVRVLNLWQKNGVFKIEIIQPLLDMAAGTSNAAPVAENVTNNEGSPPPPVKVSSEPPTQATPNSVPAVPQLPSSDAFAAVAQLFQTTQGQQLQQILQTFQQPPKPQSPALDNAVMAQVQAITAQLKTTPTQPSEQKAAFPPPEQKTAFDKKLLDRFDYDDEPEAVEESKKEDTTAVTTTAPAAAVPPAPTATVPAAAAPAAASPPPPQAPFGFPGDGMQQPAYTQHQNMDQFQPRMMGIQQDPMHHQVPLPPNGQMPGFGLLPTPPFPPMAQPVIPPTPPVQQPFQASFQAQNEPLTQKPHQQEMEVEQPCIQEVKRHMSDNRKSRSRSASRSPKRRRSRSGSRSRRSRHRRSRSRSRDRRRHSPRSRSQERRDREKERERRQKGLPQVKPETASVCSTTLWVGQLDKRTTQQDVASLLEEFGPIESINMIPPRGCAYIVMVHRQDAYRALQKLSRGNYKVNQKSIKIAWALNKGIKADYKQYWDVELGVTYIPWDKVKPEELESFCEGGMLDSDTLNPDWKGIPKKPENEVAQNGGAETSHTEPVSPIPKPLPVPVPPIPVPAPITVPPPQVPPHQPGPPVVGALQPPAFTPPLGIPPPGFGPGVPPPPPPPPFLRPGFNPMHLPPGFLPPGPPPPITPPVSIPPPHTPPISIPNSTIAGINEDTTKDLSIGNPIPTVVSGARGNAESGDSVKMYGSAVPPAAPTNLPTPPVTQPVSLLGTQGVAPGPVIGLQAPSTGLLGARPGLIPLQRPPGMPPPHLQRFPLMPPRPMPPHMMHRGPPPGPGGFAMPPPHGMKGPFPPHGPFVRPGGMPGLGGPGPGPGGPEDRDGRQQPPQQPQQQPQPQAPQQPQQQQQQQPPPSQQPPPTQQQPQQFRNDNRQQFNSGRDQERFGRRSFGNRVENDRERYGNRNDDRDNSNRDRREWGRRSPDRDRHRDLEERNRRSSGHRDRERDSRDRESRREKEEARGKEKPEVTDRAGGNKTVEPPISQVGNVDTASELEKGVSEAAVLKPSEELPAEATSSVEPEKDSGSAAEAPR
B7: sp¦Q96JJ7¦TMX3_HUMAN (protein, UniProt Q96JJ7 25-454, looked up)
Protein disulfide-isomerase …: KGFVEDLDESFKENRNDDIWLVDFYAPWCGHCKKLEPIWNEVGLEMKSIGSPVKVGKMDATSYSSIASEFGVRGYPTIKLLKGDLAYNYRGPRTKDDIIEFAHRVSGALIRPLPSQQMFEHMQKRHRVFFVYVGGESPLKEKYIDAASELIVYTYFFSASEEVVPEYVTLKEMPAVLVFKDETYFVYDEYEDGDLSSWINRERFQNYLAMDGFLLYELGDTGKLVALAVIDEKNTSVEHTRLKSIIQEVARDYRDLFHRDFQFGHMDGNDYINTLLMDELTVPTVVVLNTSNQQYFLLDRQIKNVEDMVQFINNILDGTVEAQGGDSILQRLKRIVFDAKSTIVSIFKSSPLMGCFLFGLPLGVISIMCYGIYTADTDGGYIEERYEVSKSENENQEQIEESKEQQEPSSGGSVVPTVQEPKDVLEKKKD

For the first experiment, the system named is human HL60 cells. Description: SWATH-MS proteomics, differential protein representation, akirin2 KO vs WT HL60 cells. In kind it is cell-based. As to conditions: KO vs WT; akirin2 KO vs WT HL60 cells; sheet "Under-represented in KO". A digest of the protocol: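 First, proteins from wild-type and knockout cells are digested with trypsin by FASP. Next, pooled IDA runs generate a reference ion library. Then six samples of 5 µg each are acquired by data-independent SWATH, and protein areas are normalized to the summed area of all detected proteins.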
As to B1, the “Fold Change” value is given as 0.5915 and the “Log (Fold Change)” value is reported as -0.228.
Take B2: the “Fold Change” value is 0.5881 and the “Log (Fold Change)” value is on record as -0.2305.
The corresponding values for B3 are 0.593 and -0.227.
The corresponding values for B4 are 0.571 and -0.2434.
The corresponding values for B5 are 0.5753 and -0.2401.
For B6, the “Fold Change” value came out at 0.586 and the “Log (Fold Change)” value is on record as -0.2321.

The same experiment, now with this note: akirin2 KO vs WT HL60 cells; sheet "Under-represented in KO".
B7: the “Fold Change” value came out at 0.267 and the “Log (Fold Change)” value is listed as -0.5736.

For the origin of these results see publication PMC8298264, “Function of cofactor Akirin2 in the regulation of gene expression in model human neutrophil-like HL60 cells” (Bioscience Reports, 2021).
